{
  "source": "paper PMC7026633",
  "biological_target": "Flag-tagged phosphor-mutant (AA: S1310A, S1379A) full-length human Tet3 (lentiviral) (human) (UniProt O43151)",
  "assay": "co-IP; Tet3 KO mouse ESCs stably expressing Flag-tagged Wt or AA human Tet3; lysate in TBST buffer (50 mM Tris-HCl pH 7.4, 150 mM NaCl, 1 mM EDTA, 1% Triton X-100); IP overnight with anti-Flag M2 affinity gel or mouse IgG agarose, washed four times with TBST; blot for FLAG and H2A.Z",
  "data": [
    {"substance": "histone variant H2A.Z (endogenous, mouse ESCs) (from UniProt P0C0S6 1-128) (natural protein)", "values": [
      {"measurement": "fold change of H2A.Z pulled down, against wild-type Tet3", "result": 2, "unit": "fold"}
    ]}
  ]
}
